No end group written: not given here.
Legend:
Test in all cases: fluorescence polarisation
[1] = molecular target: VHL-ElonginC-ElonginB (VCB), wild type (UniProt P40337;Q15369;Q15370)
[2] = molecular target: VHL-ElonginC-ElonginB (VCB) with VHL N67Q (UniProt P40337;Q15369;Q15370, N67Q)
[3] = molecular target: VHL-ElonginC-ElonginB (VCB) with VHL P71I (UniProt P40337;Q15369;Q15370, P71I)

Measured: binding result

Sequence of VHL-ElonginC-ElonginB (VCB), wild type (P40337 54-213, chain 1 of 3): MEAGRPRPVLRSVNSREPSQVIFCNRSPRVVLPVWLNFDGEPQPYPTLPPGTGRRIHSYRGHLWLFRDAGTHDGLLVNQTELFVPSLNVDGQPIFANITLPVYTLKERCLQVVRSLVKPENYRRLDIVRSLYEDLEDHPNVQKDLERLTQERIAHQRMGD
Sequence of VHL-ElonginC-ElonginB (VCB), wild type (Q15369 17-112, chain 2 of 3): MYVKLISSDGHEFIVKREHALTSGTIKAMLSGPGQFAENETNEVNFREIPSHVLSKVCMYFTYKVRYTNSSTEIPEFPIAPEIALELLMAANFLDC
Sequence of VHL-ElonginC-ElonginB (VCB), wild type (Q15370 1-104, chain 3 of 3): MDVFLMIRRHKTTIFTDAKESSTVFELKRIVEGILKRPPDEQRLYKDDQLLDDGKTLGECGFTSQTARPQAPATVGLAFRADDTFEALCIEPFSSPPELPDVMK
Sequence of VHL-ElonginC-ElonginB (VCB) with VHL N67Q (P40337 54-213 N67Q, chain 1 of 3): as the sequence (P40337 54-213, chain 1 of 3) above, with N14Q counted along it
Sequence of VHL-ElonginC-ElonginB (VCB) with VHL N67Q (Q15369 17-112, chain 2 of 3): as the sequence (Q15369 17-112, chain 2 of 3) above
Sequence of VHL-ElonginC-ElonginB (VCB) with VHL N67Q (Q15370 1-104, chain 3 of 3): as the sequence (Q15370 1-104, chain 3 of 3) above
Sequence of VHL-ElonginC-ElonginB (VCB) with VHL P71I (P40337 54-213 P71I, chain 1 of 3): as the sequence (P40337 54-213, chain 1 of 3) above, with P18I counted along it
Sequence of VHL-ElonginC-ElonginB (VCB) with VHL P71I (Q15369 17-112, chain 2 of 3): as the sequence (Q15369 17-112, chain 2 of 3) above
Sequence of VHL-ElonginC-ElonginB (VCB) with VHL P71I (Q15370 1-104, chain 3 of 3): as the sequence (Q15370 1-104, chain 3 of 3) above

DEALAPYIPMDDDFQLRSF (also: FAM label, site not given here) [5,6-carboxyfluorescein (FAM)-labeled HIF-1α peptide JC9]
binds: all assays above

— doi:10.1101/2022.04.14.488316 (bioRxiv, 2022)
